Measured values as given in paper PMC3025569.

Biological target: ThaI restriction endonuclease (Thermoplasma acidophilum strain ATCC 25905)
Assay: SEC

Substance: ThaI restriction endonuclease (enzyme)
- stoichiometry N: 2
